Measured values from PMC7720491.

How the values were obtained:
[1] = target: recombinant F. hepatica cathepsin L1 (FhCL1), activated mature enzyme (Fasciola hepatica)
[2] = target: human cathepsin L (HsCL) (human); test: enzyme inhibition kinetics (Ki, Morrison equation)
[3] = target: recombinant F. hepatica cathepsin L1 (FhCL1), activated mature enzyme (Fasciola hepatica); test: enzyme inhibition kinetics (Ki, Morrison equation)
[4] = target: recombinant F. hepatica cathepsin L2 (FhCL2), activated mature enzyme (Fasciola hepatica); test: enzyme inhibition kinetics (Ki, Morrison equation)
[5] = target: recombinant F. hepatica cathepsin L3 (FhCL3), activated mature enzyme (Fasciola hepatica); test: enzyme inhibition kinetics (Ki, Morrison equation)
[6] = target: human cathepsin K (HsCK) (human) (UniProt P43235); test: enzyme inhibition kinetics (Ki, Morrison equation)
[7] = target: recombinant F. hepatica cathepsin L2 (FhCL2), activated mature enzyme (Fasciola hepatica)
[8] = target: recombinant F. hepatica cathepsin L3 (FhCL3), activated mature enzyme (Fasciola hepatica)
[9] = target: recombinant F. hepatica cathepsin L1 (FhCL1), activated mature enzyme (Fasciola hepatica); remark: listed apart in the source
[10] = target: recombinant F. hepatica cathepsin L3 (FhCL3), activated mature enzyme (Fasciola hepatica); remark: listed apart in the source

Chain of human cathepsin K (HsCK) (human) (P43235 115-329): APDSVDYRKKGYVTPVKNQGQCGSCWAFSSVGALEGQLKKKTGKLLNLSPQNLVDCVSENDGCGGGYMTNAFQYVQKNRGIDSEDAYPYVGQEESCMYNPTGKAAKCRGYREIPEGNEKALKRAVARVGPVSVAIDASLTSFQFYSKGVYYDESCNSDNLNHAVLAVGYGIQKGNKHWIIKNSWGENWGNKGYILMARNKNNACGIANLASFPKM

Row | Substance | percent inhibition of recombinant peptidase activity by 10 nM propeptide, pH 7.0 [1] | Ki [2] | Ki [3] | Ki [4] | Ki [5] | Ki [6] | percent inhibition of recombinant peptidase activity by 10 nM propeptide, pH 7.0 [7] | percent inhibition of recombinant peptidase activity by 10 nM propeptide, pH 7.0 [8] | percent reduction of peptidase activity by 500 nM 33-mer peptide, pH 7.0 [9] | percent reduction of peptidase activity by 500 nM 33-mer peptide, pH 7.0 [10]
1 | ppFhCL3_Tyr^46Lys^47/Ala^46Ala^47 (domain or fragment) | 85% | > 10000 nM | 1.26 nM | > 10000 nM | > 10000 nM | > 10000 nM |  |  |  | 
2 | ppFhCL3_Glu^68/Arg^68 (domain or fragment) | 95% | 6.04 nM | 0.3 nM | 0.02 nM | 0.002 nM | 1.4 nM | < 20% | < 20% |  | 
3 | recombinant FhCL3 propeptide (ppFhCL3), wild type (from UniProt A0A879R2T5 1-326) (domain or fragment) | 98% | 26.6 nM | 0.04 nM | 0.004 nM | < 0.002 nM | 2 nM | 97% | 100% |  | 
4 | ppFhCL3_Leu^66/Gly^66 (domain or fragment) | 90% | > 10000 nM | 0.05 nM | > 10000 nM | 8 nM | > 10000 nM |  |  |  | 
5 | 33-mer synthetic peptide derived from the FhCL3 propeptide (p45 to p77) |  |  |  |  |  |  |  |  | 30% | 50%
